Assay results as given in patent publication US20240368668A1, “SUBSTRATES AND BIOMARKERS OF ADAMTS7” (The Broad Institute, Inc., priority 2021, published 2024).
Square brackets hold non-standard residues; d marks the D form. Ends that are not written are not given here.

Molecular target: T1, mouse ADAMTS7 (Mus musculus, UniProt Q68SA9, E373Q)
T1 construct: Full-length mouse Adamts7 1-1857 (Uniprot Q68SA9, WT or E373Q catalytic mutant); expressed in transfected cells; host or cells: Human Coronary Artery Smooth Muscle Cells (HCA-SMC, Lonza), adenovirus 50 MOI
T1 sequence (Q68SA9 221-1657 E373Q): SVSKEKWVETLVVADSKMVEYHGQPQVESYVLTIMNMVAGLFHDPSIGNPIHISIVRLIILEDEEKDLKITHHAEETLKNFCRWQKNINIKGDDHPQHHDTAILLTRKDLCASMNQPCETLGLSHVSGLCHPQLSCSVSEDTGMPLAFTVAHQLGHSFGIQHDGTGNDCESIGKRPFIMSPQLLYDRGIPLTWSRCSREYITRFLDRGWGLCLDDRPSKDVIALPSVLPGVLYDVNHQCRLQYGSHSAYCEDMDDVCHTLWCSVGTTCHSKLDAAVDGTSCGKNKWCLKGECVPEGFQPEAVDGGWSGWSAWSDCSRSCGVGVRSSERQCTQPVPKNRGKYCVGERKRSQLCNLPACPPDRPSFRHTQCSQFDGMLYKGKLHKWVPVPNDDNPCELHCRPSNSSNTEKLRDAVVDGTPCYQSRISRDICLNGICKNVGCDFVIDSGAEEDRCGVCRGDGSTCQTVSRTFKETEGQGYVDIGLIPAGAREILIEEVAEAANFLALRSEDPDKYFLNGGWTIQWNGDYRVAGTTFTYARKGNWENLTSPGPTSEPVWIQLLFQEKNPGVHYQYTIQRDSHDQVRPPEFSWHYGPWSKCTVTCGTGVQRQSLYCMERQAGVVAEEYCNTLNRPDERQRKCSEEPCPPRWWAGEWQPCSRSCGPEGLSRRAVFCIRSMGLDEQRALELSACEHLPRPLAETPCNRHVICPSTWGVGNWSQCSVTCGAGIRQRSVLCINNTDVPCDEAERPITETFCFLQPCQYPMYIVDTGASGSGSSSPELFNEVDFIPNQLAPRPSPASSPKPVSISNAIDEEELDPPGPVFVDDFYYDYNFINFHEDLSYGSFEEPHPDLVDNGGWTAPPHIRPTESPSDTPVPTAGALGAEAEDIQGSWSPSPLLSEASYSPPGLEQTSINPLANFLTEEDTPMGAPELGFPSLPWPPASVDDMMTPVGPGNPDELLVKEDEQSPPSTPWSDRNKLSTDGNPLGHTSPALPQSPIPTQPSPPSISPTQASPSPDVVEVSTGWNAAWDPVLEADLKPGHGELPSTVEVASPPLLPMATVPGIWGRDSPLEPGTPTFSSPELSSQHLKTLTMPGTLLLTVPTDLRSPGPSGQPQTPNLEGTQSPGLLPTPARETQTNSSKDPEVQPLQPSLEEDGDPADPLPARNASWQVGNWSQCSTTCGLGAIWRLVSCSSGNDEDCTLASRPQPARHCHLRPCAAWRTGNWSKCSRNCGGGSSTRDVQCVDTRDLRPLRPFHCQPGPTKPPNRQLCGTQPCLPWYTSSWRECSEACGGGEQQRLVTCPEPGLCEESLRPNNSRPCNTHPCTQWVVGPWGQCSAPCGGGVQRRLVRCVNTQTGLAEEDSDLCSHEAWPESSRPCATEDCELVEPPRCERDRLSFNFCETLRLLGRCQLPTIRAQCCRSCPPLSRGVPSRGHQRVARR
Assay: TMT10 TAILS N-terminomics, SMC2 experiment (process replicates, trypsin/AspN digest)
Assay type: cell-based
Conditions: SMC2_TAILS HC
Method in brief: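 Full-length mouse ADAMTS7 (WT or E373Q mutant, C-terminal 3xFLAG) or luciferase was transduced via adenovirus, 50 MOI, into HCA-SMC (SMC1, SMC2) or HUVEC. SMC1: pooled media, technical triplicates 400 ug; SMC2: process triplicates 300 ug; HUVEC: process triplicates 200 ug, bFGF2 10 ng/ml.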

[1] = log fold change of N-terminal peptide, Ad-mADAMTS7 EQ over Luc

Row | Substance | logFC.mEQ.over.Luc (log fold change, mEQ over Luc) | logFC.mEQ.over.Luc [1]
1 | AEBP1_37 (FLEGFLSELEPEPR; listed as Homo sapiens) | −0.27 | –
2 | CCDC80_66 (LEEPNLQPLQR; listed as Homo sapiens) | −0.13 | –
3 | EFEMP1_124 (AVAGPEMQTGR; listed as Homo sapiens) | −0.46 | –
4 | EFEMP1_125 (VAGPEMQTGR; listed as Homo sapiens) | −0.99 | –
5 | FBLN2_259 (ALGPPAPVQAKAR; listed as Homo sapiens) | −0.27 | –
6 | FBLN2_260 (LGPPAPVQAKAR; listed as Homo sapiens) | −0.44 | –
7 | FBN1_29 (LEAGNVKETR; listed as Homo sapiens) | −0.24 | –
8 | FBN1_53 (LKGPNVCGSR; listed as Homo sapiens) | −0.25 | –
9 | FLNA_1285 (LTQTGGPHVKAR; listed as Homo sapiens) | −1.35 | –
10 | FN1_36 (MVQPQSPVAVSQSKPGCYDNGKHYQINQQWER; listed as Homo sapiens) | −0.11 | –
11 | FN1_40 (QSPVAVSQSKPGCYDNGKHYQINQQWER; listed as Homo sapiens) | −0.06 | –
12 | FN1_1143 (LTPGVEYVYTIQVLR; listed as Homo sapiens) | −0.49 | –
13 | FN1_1656 (SSSPVTGYR; listed as Homo sapiens) | −0.65 | –
14 | GSN_413 (HIANVER; listed as Homo sapiens) | 0.18 | –
15 | HSPG2_275 (LLPGSVR; listed as Homo sapiens) | −0.36 | –
16 | HSPG2_2331 (ANLAYPAGSTQPIR; listed as Homo sapiens) | −0.19 | –
17 | HSPG2_2333 (LAYPAGSTQPIR; listed as Homo sapiens) | −0.22 | –
18 | IGFBP3_31 (SAGLGPVVR; listed as Homo sapiens) | −0.31 | –
19 | IGFBP3_32 (AGLGPVVR; listed as Homo sapiens) | −0.51 | –
20 | IGFBP7_101 (AAGGPGVSGVCVCKSR; listed as Homo sapiens) | −0.04 | –
21 | LOXL1_219 (VASAGVIYPYQPR; listed as Homo sapiens) | – | 0.09
22 | LOXL2_37 (FQQPAPEYHQPQAPANVAKIQLR; listed as Homo sapiens) | – | −0.03
23 | LOXL2_38 ([code q]QPAPEYHQPQAPANVAKIQLR; not fully specified; listed as Homo sapiens) | – | 0.06
24 | LOX_58 (LSLGSQYQPQR; listed as Homo sapiens) | −0.08 | –
25 | LOX_123 (HWFQAGYSTSR; listed as Homo sapiens) | 0.00 | –
26 | LOX_124 (WFQAGYSTSR; listed as Homo sapiens) | −0.11 | –
27 | LOX_126 (QAGYSTSR; listed as Homo sapiens) | −0.26 | –
28 | LTBP1_393 (LTATNFR; listed as Homo sapiens) | – | 0.29
29 | LTBP1_540 (HQQVIPHVYPVAAKTQLGR; listed as Homo sapiens) | – | 0.05
